Test results reported in the supplement of paper PMC10201428.
± gives the standard deviation of the averaged measurements.

Tests used:
[1] = test system: VchCAST RNA-guided transposition machinery (E. coli BL21(DE3) host, lacZ target); experiment: relative integration efficiency (T-RL orientation) vs wild-type transposon end (log2 (normalized fold change)); transposon end mutated: right end (5 bp flank + 75 bp right end); higher = more efficient transposition
Outline: (§1)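 Co-transformation of E. coli BL21(DE3) combined a pUC57 mini-transposon donor, holding barcoded pools of 1549 left-end or 1849 right-end variants, with a T7-driven plasmid encoding a CRISPR array, tniQ-cas8-cas7-cas6 and tnsA-tnsB-tnsC. After plating with 0.1 mM IPTG at 37°C for 18 h, input plasmids and genomic integration junctions were PCR-amplified and Illumina-sequenced across two biological output replicates, with four reference barcodes. Relative integration efficiency is the normalised, log-transformed output/input barcode fold change.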

[2] = test system: VchCAST RNA-guided transposition machinery (E. coli BL21(DE3) host, lacZ target); experiment: relative integration efficiency (T-LR orientation) vs wild-type transposon end (log2 (normalized fold change)); transposon end mutated: right end (5 bp flank + 75 bp right end); higher = more efficient transposition
Outline: as §1

| Sequence | relative integration efficiency (log2) [1] | relative integration efficiency (log2) [2] |
| --- | --- | --- |
| ACATTTGGGGATACAACCATAAAATGATAATTACACCCATAAATTGATAATTATCACACCCATAAATTGATATTGCCTCTGATCATAGTCAGACCAACATTGCTACGACCCGTATTCGCACCGACAC | -6.43 ± 0.081 | -5.49 ± 0.94 |
| ACATTTGGGTCTACAACCATAAAATGATAATTACACCCATAAATTGATAATTATCACACCCATAAATTGATATTGCCTCTGATCATAGTCAGACCAACATTGCTACGACCCGTATTCGCACCGACAC | -7.19 ± 1.1 | -4.93 ± 0.96 |
| ACATTTGGTGATACAACCATATAATGATAATAACACCCATAAAATGATAATTATCACACCCAATTTAACTATAACGCTCTGATCATAGTCAGACCAACATTGCTACGACCCGTATTCGCACCGACAC | -6.35 ± 0.32 | -3.69 ± 0.97 |
| ACATTTGTAAAAAAAACCATACGTTGATTTTACGAAACCATACGCTGAAATAAAAACAACCATACCTTGAAATTGCCTCTGATCATAGTCAGACCAACATTGCTACGACCCGTATTCGCACCGACAC | -6.84 ± 0.49 | -4.82 ± 1.9 |
| ACATTTGTAAAAAAAACCATACGTTGATTTTACGAAACCATACGCTGAAATAAAAACAACCATACCTTGAAATTGCTTATAAAGTGTACAACACTTGAGAAAGTTTACTACAGGTATGCACCGACAC | -7.441 ± 0.019 | < -10 |
| ACATTTGTAAAAAAAACCATACGTTGATTTTACGAAACCATACGCTGAAATAATCACAACCATAAATTGAAATTGCCTCTGATCATAGTCAGACCAACATTGCTACGACCCGTATTCGCACCGACAC | -6.99 ± 0.21 | -6.41 ± 1.9 |
| ACATTTGTAAAAAAAACCATACGTTGATTTTACGAAACCATACGCTGAAATAATCACAACCATAACTTGAAATTGCCTCTGATCATAGTCAGACCAACATTGCTACGACCCGTATTCGCACCGACAC | -6.63 ± 1.2 | < -10 |
| ACATTTGTAAAAAAAACCATACGTTGATTTTACGAAACCATACGCTGAAATAATCACAACCATACATTGAAATTGCCTCTGATCATAGTCAGACCAACATTGCTACGACCCGTATTCGCACCGACAC | -6.97 ± 0.31 | -4.99 ± 1 |
| ACATTTGTAAAAACAACCATAAAATGATAATTACACCCATAAATTGATAATTATCACACCCATAAATTGATATTGCCTCTGATCATAGTCAGACCAACATTGCTACGACCCGTATTCGCACCGACAC | 0.25 ± 0.023 | -0.286 ± 0.49 |
| ACATTTGTAAATAAAACCATACGTTGATTTTACGAAACCATACGCTGAAATAATCACACCCATAAATTGATATTGCCTCTGATCATAGTCAGACCAACATTGCTACGACCCGTATTCGCACCGACAC | -6.595 ± 0.05 | -4.7 ± 0.57 |
| ACATTTGTACATACAACCATAAAATGATAATTACACCCATAAATTGATAATTATCACACCCATAAATTGATATTGCCTCTGATCATAGTCAGACCAACATTGCTACGACCCGTATTCGCACCGACAC | -0.312 ± 0.12 | -1.97 ± 0.36 |
| ACATTTGTACTAACAACCATAAAATGATAATTACACCCATAAATTGATAATTATCACACCCATAAATTGATATTGCCTCTGATCATAGTCAGACCAACATTGCTACGACCCGTATTCGCACCGACAC | -1.43 ± 0.32 | -4.23 ± 0.45 |
| ACATTTGTAGAAAAAACCATACGTTGATTTTACGAAACCATACGCTGAAATAATCACACCCATAAATTGATATTGCCTCTGATCATAGTCAGACCAACATTGCTACGACCCGTATTCGCACCGACAC | -6.62 ± 0.1 | -5.68 ± 1.4 |
| ACATTTGTAGATAAAACCATACGTTGATTTTACGAAACCATACGCTGAAATAATCACACCCATAAATTGATATTGCCTCTGATCATAGTCAGACCAACATTGCTACGACCCGTATTCGCACCGACAC | -6.57 ± 0.4 | -5.26 ± 0.89 |
| ACATTTGTCAACCATAAAATGATAATTACACCCATAAATTGATAATTATCACACCCATAAATTGATATTGCCTCTGATCATAGTCAGACCAACATTGCTACGACCCGTATTCGCACCGACACTGACT | -6.76 ± 0.31 | -4.8 ± 0.66 |
| ACATTTGTCGATACAACCATAAAACGATAATTACACCCATAAATGGATAATTATCACACCCAATTTAACTATAACGCTCTGATCATAGTCAGACCAACATTGCTACGACCCGTATTCGCACCGACAC | -1.19 ± 0.15 | 1.85 ± 0.05 |

| Sequence | relative integration efficiency (log2) [1] | relative integration efficiency (log2) [2] |
| --- | --- | --- |
| ACATTTGTCGATACAACCATAAAACGATAATTACACCCATAAATGGATCATTATCACACCCAATTTAACTATAACGCTCTGATCATAGTCAGACCAACATTGCTACGACCCGTATTCGCACCGACAC | -1.91 ± 0.19 | 0.741 ± 0.05 |
| ACATTTGTCGATACAACCATAAAACGATAATTACACCCATAAATTCATAATTATCACACCCAATTTAACTATAACGCTCTGATCATAGTCAGACCAACATTGCTACGACCCGTATTCGCACCGACAC | -2.45 ± 0.33 | 1.06 ± 0.15 |
| ACATTTGTCGATACAACCATAAAACGATAATTACACCCATAAATTCATCATTATCACACCCAATTTAACTATAACGCTCTGATCATAGTCAGACCAACATTGCTACGACCCGTATTCGCACCGACAC | -2.2 ± 0.19 | 1.48 ± 0.17 |
| ACATTTGTCGATACAACCATAAAACGATAATTACACCCATAAATTGATAATTATCACACCCAATTTAACTATAACGCTCTGATCATAGTCAGACCAACATTGCTACGACCCGTATTCGCACCGACAC | -1.38 ± 0.25 | 2.07 ± 0.094 |
| ACATTTGTCGATACAACCATAAAACGATAATTACACCCATAAATTGATCATTATCACACCCAATTTAACTATAACGCTCTGATCATAGTCAGACCAACATTGCTACGACCCGTATTCGCACCGACAC | -1.88 ± 0.3 | 1.9 ± 0.036 |
| ACATTTGTCGATACAACCATAAAATGATAATTACACCCATAAATGGATAATTATCACACCCAATTTAACTATAACGCTCTGATCATAGTCAGACCAACATTGCTACGACCCGTATTCGCACCGACAC | -1.05 ± 0.18 | 1.69 ± 0.097 |
| ACATTTGTCGATACAACCATAAAATGATAATTACACCCATAAATGGATAATTATCACCCCCAATTTAACTATAACGCTCTGATCATAGTCAGACCAACATTGCTACGACCCGTATTCGCACCGACAC | -1.38 ± 0.18 | 1.38 ± 0.025 |
| ACATTTGTCGATACAACCATAAAATGATAATTACACCCATAAATGGATCATTATCACACCCAATTTAACTATAACGCTCTGATCATAGTCAGACCAACATTGCTACGACCCGTATTCGCACCGACAC | -1.61 ± 0.16 | 0.97 ± 0.063 |
| ACATTTGTCGATACAACCATAAAATGATAATTACACCCATAAATGGATCATTATCACCCCCAATTTAACTATAACGCTCTGATCATAGTCAGACCAACATTGCTACGACCCGTATTCGCACCGACAC | -1.61 ± 0.32 | 1.19 ± 0.086 |
| ACATTTGTCGATACAACCATAAAATGATAATTACACCCATAAATTCATAATTATCACACCCAATTTAACTATAACGCTCTGATCATAGTCAGACCAACATTGCTACGACCCGTATTCGCACCGACAC | -1.92 ± 0.14 | 1.2 ± 0.05 |
| ACATTTGTCGATACAACCATAAAATGATAATTACACCCATAAATTCATAATTATCACCCCCAATTTAACTATAACGCTCTGATCATAGTCAGACCAACATTGCTACGACCCGTATTCGCACCGACAC | -1.83 ± 0.51 | 1.18 ± 0.19 |
| ACATTTGTCGATACAACCATAAAATGATAATTACACCCATAAATTCATCATTATCACACCCAATTTAACTATAACGCTCTGATCATAGTCAGACCAACATTGCTACGACCCGTATTCGCACCGACAC | -2.26 ± 0.23 | 1.45 ± 0.14 |
| ACATTTGTCGATACAACCATAAAATGATAATTACACCCATAAATTCATCATTATCACCCCCAATTTAACTATAACGCTCTGATCATAGTCAGACCAACATTGCTACGACCCGTATTCGCACCGACAC | -1.99 ± 0.23 | 1.54 ± 0.23 |
| ACATTTGTCGATACAACCATAAAATGATAATTACACCCATAAATTGATAATTATCACCCCCAATTTAACTATAACGCTCTGATCATAGTCAGACCAACATTGCTACGACCCGTATTCGCACCGACAC | -0.936 ± 0.32 | 2.59 ± 0.2 |
| ACATTTGTCGATACAACCATAAAATGATAATTACACCCATAAATTGATCATTATCACACCCAATTTAACTATAACGCTCTGATCATAGTCAGACCAACATTGCTACGACCCGTATTCGCACCGACAC | -1.31 ± 0.23 | 2.328 ± 0.013 |
| ACATTTGTCGATACAACCATAAAATGATAATTACACCCATAAATTGATCATTATCACCCCCAATTTAACTATAACGCTCTGATCATAGTCAGACCAACATTGCTACGACCCGTATTCGCACCGACAC | -1.31 ± 0.19 | 2.13 ± 0.24 |
